US7572594B2, “Screening assays for agonists or antagonists or receptor activator of NF-κB” (Immunex Corporation, priority 2000, dated 2009)

Tests used:
[1] = tested on: MMP-9 (SEQ ID NO:11)/luciferase promoter; experiment: MMP-9/luciferase reporter in RAW 264.7 cells; type: cell-based, murine; conditions: 1 μg/ml for 18 hours
Protocol: Additionally, RAW 264.7 cells (6×10^6 cells) were transfected with 15 μg of MMP-9 (SEQ ID NO:11)/luciferase plasmid DNA using DEAE/dextran. Two hours after transfection, cells were divided into two equal amounts and further incubated for 24 hours. Addition of 1 μg/ml of a leucine zipper form of murine RANK-L for 18 hours was sufficient to induce the MMP-9 (SEQ ID NO:11)/luciferase promoter 10-15 fold.

mouse MMP-9 mRNA = experiment: Quantitative RT-PCR of MMP-9 mRNA in RAW 264.7 cells; type: cell-based; conditions: RANKL/LZ 200 ng/ml or TNFα 20 ng/ml, various times
Excerpt: MMP-9 mRNA is elevated greater than 350-fold by RANK-L, but is not increased by TNFα. This specificity is helpful in screening for inhibitors of RANK signal transduction.

mouse TRAP mRNA = experiment: Quantitative RT-PCR of TRAP mRNA in RAW 264.7 cells; type: cell-based; conditions: RANKL/LZ 200 ng/ml or TNFα 20 ng/ml, various times

B1: leucine zipper form of murine RANK-L: soluble leucine zipper fusion of murine RANK-L (protein)
chain: YFRAQMDPNRISEDSTHCFYRILRLHENADLQDSTLESEDTLPDSCRRMKQAFQGAVQKELQHIVGPQRFSGAPAMMEGSWLDVAQRGKPEAQPFAHLTINAASIPSGSHKVTLSSWYHDRGWAKISNMTLSNGKLRVNQDGFYYLYANICFRHHETSGSVPTDYLQLMVYVVKTSIKIPSSHNLMKGGSTKNWSGNSEFHFYSINVGGFFKLRAGEEISIQVSNPSLLDPDQDATYFGAFKVQDID
modifications: left off: a dimerising Fc or GST
For B1, the “induction of MMP-9/luciferase promoter” value [1] was 10-15 fold, the “MMP-9 mRNA elevation” value (mouse MMP-9 mRNA) was “greater than 350 fold” and the “TRAP mRNA elevation” value (mouse TRAP mRNA) was “greater than 250 fold”.
